T1: Cynomolgus TCR(AEA41865/AEA41866)-zipper protein (cynomolgus monkey)
T1 construct: also called cyTCR-zipper protein; cynoTCR zipper
T1 TCR alpha: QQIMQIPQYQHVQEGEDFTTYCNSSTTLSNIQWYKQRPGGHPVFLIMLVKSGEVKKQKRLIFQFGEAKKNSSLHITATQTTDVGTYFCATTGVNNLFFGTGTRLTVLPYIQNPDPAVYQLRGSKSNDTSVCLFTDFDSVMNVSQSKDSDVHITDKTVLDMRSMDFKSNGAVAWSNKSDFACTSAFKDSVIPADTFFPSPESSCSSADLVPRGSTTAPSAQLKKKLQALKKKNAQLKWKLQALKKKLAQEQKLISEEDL
T1 TCR beta: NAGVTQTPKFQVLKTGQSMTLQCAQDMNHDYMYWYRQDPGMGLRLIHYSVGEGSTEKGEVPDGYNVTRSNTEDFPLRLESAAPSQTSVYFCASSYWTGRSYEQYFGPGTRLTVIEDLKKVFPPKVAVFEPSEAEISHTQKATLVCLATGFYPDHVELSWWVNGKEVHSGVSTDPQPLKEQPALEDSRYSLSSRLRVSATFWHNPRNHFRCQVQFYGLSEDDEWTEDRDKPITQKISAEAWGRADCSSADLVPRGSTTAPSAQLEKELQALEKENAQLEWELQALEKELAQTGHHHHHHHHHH

T2: Human T cell receptor on human primary T cells (human, UniProt P01848 1-140; P01850 1-176)
T2 construct: whole, on cells
T2 TCR alpha (looked up): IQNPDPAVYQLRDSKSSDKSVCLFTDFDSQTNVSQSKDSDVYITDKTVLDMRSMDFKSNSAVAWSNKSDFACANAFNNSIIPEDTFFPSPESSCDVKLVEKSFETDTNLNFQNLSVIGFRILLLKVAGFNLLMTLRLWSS
T2 TCR beta (looked up): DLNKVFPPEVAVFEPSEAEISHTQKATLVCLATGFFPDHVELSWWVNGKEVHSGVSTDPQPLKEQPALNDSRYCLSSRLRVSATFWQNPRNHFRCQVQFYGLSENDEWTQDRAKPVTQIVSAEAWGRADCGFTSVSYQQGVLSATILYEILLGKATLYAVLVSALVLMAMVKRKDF

T3: Cynomolgus TCR(AEA41865/AEA41866)-zipper protein (cynomolgus monkey)
T3 construct: also called cyTCR-zipper protein; cynoTCR zipper
T3 TCR alpha: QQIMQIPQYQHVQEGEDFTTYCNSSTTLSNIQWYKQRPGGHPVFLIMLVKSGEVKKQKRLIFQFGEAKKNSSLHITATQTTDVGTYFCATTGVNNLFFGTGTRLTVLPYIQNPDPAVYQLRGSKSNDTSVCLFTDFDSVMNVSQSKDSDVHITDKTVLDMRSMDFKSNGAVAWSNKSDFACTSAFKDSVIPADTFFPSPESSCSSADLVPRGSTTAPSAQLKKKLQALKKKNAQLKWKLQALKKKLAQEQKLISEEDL
T3 TCR beta: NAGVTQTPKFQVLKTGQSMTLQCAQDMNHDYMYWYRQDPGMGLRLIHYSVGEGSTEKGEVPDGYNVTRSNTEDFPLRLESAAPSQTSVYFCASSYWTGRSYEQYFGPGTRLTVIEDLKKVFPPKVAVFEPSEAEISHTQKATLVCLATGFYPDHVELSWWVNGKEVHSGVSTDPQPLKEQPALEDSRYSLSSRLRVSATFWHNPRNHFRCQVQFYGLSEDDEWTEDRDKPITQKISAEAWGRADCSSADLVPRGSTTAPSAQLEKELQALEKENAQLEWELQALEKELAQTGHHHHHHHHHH


Key:
[1] = molecular target: T1, Cynomolgus …; experiment: SPR ProteOn off-rate screen
[2] = molecular target: T1, Cynomolgus …; experiment: ratio higher/lower kd on huTCR- and cyTCR-zipper (SPR)
Text: Unique ISVD clones, i.e. clones with a unique sequence, were subsequently selected and screened to determine their off-rate. To this purpose, the ISVD containing periplasmic extracts were screened on huTCR-zipper and cyTCR-zipper protein by SPR on a ProteOn XPR36 instrument. The zipper proteins were immobilized on a GLC sensor chip (between 4300 and 5100RU) via amine coupling chemistry, using EDC/sulfo-NHS for activation of the carboxyl groups on the chip surface (running buffer: HBS-EP+, pH7.4). Periplasmic extracts were injected at 1/10 dilution for 2 min (at a flow rate of 45 μL/min) and dissociation was followed for 900 s. A pulse of 100 s of 3 M MgCl2 at 45 μL/min was used for regeneration. […] Processed sensorgrams were fitted with the Langmuir model (1:1 interaction) using ProteOn Manager 3.1.0 (Version 3.1.0.6) software.

[3] = molecular target: T2, Human T cell receptor on human primary …; experiment: flow cytometry, human primary T cells
Experimental: The ISVD variants were characterized for binding to CHO-K1 huTCR(2XN9)/huCD3 or to human and cynomolgus primary T cells. […] Next, cells were washed 3 times with FACS buffer and incubated with 1 μg/ml ANTI-FLAG® M2 Ab (Sigma, F1804) and washed again. […] Subsequently, cells were resuspended in FACS buffer supplemented with 5 nM TO-PRO®-3 Iodide to distinguish live from dead cells, which are removed during the gating procedure. Cells were analyzed using a FACS Array flow cytometer (BD Biosciences) and Flowing Software. First a P1 population which represented more than 80% of the total cell population was selected based on FSC-SSC distribution. In this gate, 10000 cells were counted during acquisition. From this population the TO-PRO®-3+cells (dead cells) were excluded and the mean fluorescence intensity (MFI) PE value was calculated.

[4] = molecular target: T3, Cynomolgus …; experiment: higher koff divided by lower koff, humanTCR zipper vs cynoTCR zipper (SPR)

Binder | koff [1] [s⁻¹] | gap in off-rate human vs cyno [2] [fold] | EC50 [3] [nM] | Gap in off-rate human vs cyno [4] [fold]
T017000468 (VHH) VHH: EVQLVESGGGVVQPGGSLRLSCVASGSVHKINFYGWYRQAPGKEREKVAHISIGDQTDYADSAKGRFTISRDESKNMVYLQMNSLRPEDTALYFCRAFSRIWPYDYWGQGTLVTVSS | 0.00141 | 8 |  | 
T017000569 (VHH) VHH: EVQLVESGGGVVQPGGSLRLSCVASGDVHKLNFLGWYRQAPGKEREKVAHISIGDQTDYADSAKGRFTISRDESKNMVYLQMNSLRPEDTALYFCRAMSRIWPYDYWGQGTLVTVSS | 0.00308 | 9 |  | 
T017000602 (VHH) VHH: EVQLVESGGGVVQPGGSLRLSCVASWDVHQINFLGWYRQAPGKEREKVAHISIGDQTDYADSAKGRFTISRDESKNMVYLQMNSLRPEDTALYFCRAFSKIWPYDYWGQGTLVTVSS | 0.00055 | 2 |  | 
T017000613 (VHH) VHH: EVQLVESGGGVVQPGGSLRLSCVASWDVHKINFYGWYRQAPGKEREKVAHISIGDQTDYADSAKGRFTISRDESKNMVYLQMNSLRPEDTALYFCRALSKIWPYDYWGQGTLVTVSS | 0.000364 | 1 |  | 
T017000615 (VHH) VHH: EVQLVESGGGVVQPGGSLRLSCVASYDVHKINFYGWYRQAPGKEREKVAHISIGDQTDYADSAKGRFTISRDESKNMVYLQMNSLRPEDTALYFCRALSKIWPYDYWGQGTLVTVSS | 0.00087 | 1.1 |  | 
T017000623 (VHH, not shown: small tags and cut ends) VHH: EVQLVESGGGVVQPGGSLRLSCVASWDVHKINFYGWYRQAPGKEREKVAHISIGDQTDYADSAKGRFTISRDESKNTVYLQMNSLRPEDTALYYCRALSKIWPYDYWGQGTLVTVSS |  |  | 280 | 1
T017000625 (VHH, not shown: small tags and cut ends) VHH: EVQLVESGGGVVQPGGSLRLSCVASYDVHKINFYGWYRQAPGKEREKVAHISIGDQTDYADSAKGRFTISRDESKNTVYLQMNSLRPEDTALYYCRALSKIWPYDYWGQGTLVTVSS |  |  | 230 | 1
T017000635 (VHH, not shown: small tags and cut ends) VHH: EVQLVESGGGVVQPGGSLRLSCVASWDVHQINFYGWYRQAPGKEREKVAHISIGDQTDYADSAKGRFTISRDESKNTVYLQMNSLRPEDTALYYCRALSRIWPYDYWGQGTLVTVSS |  |  | 70 | > 55.9
T017000641 (VHH, not shown: small tags and cut ends) VHH: EVQLVESGGGVVQPGGSLRLSCVASWDVHKINFYTWYRQAPGKEREKVAHISIGDQTDYADSAKGRFTISRDESKNTVYLQMNSLRPEDTALYYCRALSKIWPYDYWGQGTLVTVSS |  |  | 270 | 1.1
T017000691 (VHH, not shown: small tags and cut ends) VHH: EVQLVESGGGVVQPGGSLRLSCVASWEVHQINFYGWYRQAPGKEREKVAHISIGDQTDYADSAKGRFTISRDESKNTVYLQMNSLRPEDTALYYCRALSRIWPYDYWGQGTLVTVSS |  |  | 150 | > 61.1
